Test results reported in the supplement of paper PMC9112550, “Optimization of the antimicrobial peptide Bac7 by deep mutational scanning” (BMC Biology, 2022).

Tested on: Escherichia coli TOP10
Test: shrunken log2 fold change of peptide-encoding DNA abundance (4.5 h post-induction vs induction); higher = less antimicrobial activity (less host growth inhibition)
Settings: time post-induction: 4.5 h; library: site-saturation at positions 5, 18, 19, 20
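Note: peptides expressed intracellularly from a pBAD plasmid library in pooled LB shake-flask culture, induced with 0.3% L-arabinose, DNA abundance read by NGS, three biological replicates, DESeq2 with apeglm shrinkage.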

| Sequence | shrunken log2 fold change |
| --- | --- |
| RRIRERPPRLPRPRPRPMIVPRP | -0.477 |
| RRIRERPPRLPRPRPRPWMRPRP | 0.079 |
| RRIRMRPPRLPRPRPRPYNSPRP | -0.22 |
| RRIRCRPPRLPRPRPRPYELPRP | -0.18 |
| RRIRRRPPRLPRPRPRPCKMPRP | -0.0577 |
| RRIRPRPPRLPRPRPRPMKAPRP | 0.0531 |
| RRIRPRPPRLPRPRPRPKIGPRP | 0.0118 |
| RRIRVRPPRLPRPRPRPFNEPRP | -0.258 |
| RRIRSRPPRLPRPRPRPKAWPRP | 0.148 |
| RRIRARPPRLPRPRPRPEATPRP | 1.65 |
| RRIRLRPPRLPRPRPRPCTQPRP | -0.174 |
| RRIRLRPPRLPRPRPRPNLKPRP | -0.367 |
| RRIRARPPRLPRPRPRPNCGPRP | 0.281 |
| RRIRARPPRLPRPRPRPGGEPRP | 0.694 |
| RRIRYRPPRLPRPRPRPMPYPRP | -0.0899 |
| RRIRRRPPRLPRPRPRPLRKPRP | 0.793 |
| RRIRCRPPRLPRPRPRPNTLPRP | -0.535 |
| RRIRPRPPRLPRPRPRPGHLPRP | 0.234 |
| RRIRGRPPRLPRPRPRPWHWPRP | 0.424 |
| RRIRIRPPRLPRPRPRPGAFPRP | -0.294 |
| RRIRYRPPRLPRPRPRPACHPRP | -0.453 |
| RRIRTRPPRLPRPRPRPSILPRP | -0.781 |

| Sequence | shrunken log2 fold change |
| --- | --- |
| RRIRDRPPRLPRPRPRPWRCPRP | 0.26 |
| RRIRFRPPRLPRPRPRPLLKPRP | -0.321 |
| RRIRGRPPRLPRPRPRPWQDPRP | 0.00455 |
| RRIRIRPPRLPRPRPRPYGVPRP | -0.266 |
| RRIRTRPPRLPRPRPRPCFRPRP | -0.0887 |
| RRIRCRPPRLPRPRPRPEHAPRP | 0.999 |
| RRIRWRPPRLPRPRPRPEFHPRP | 0.227 |
| RRIRRRPPRLPRPRPRPSTIPRP | -0.121 |
| RRIRYRPPRLPRPRPRPHCHPRP | -0.735 |
| RRIRDRPPRLPRPRPRPNTQPRP | 0.0704 |
| RRIRLRPPRLPRPRPRPLDFPRP | -0.162 |
| RRIRRRPPRLPRPRPRPKWPPRP | 0.141 |
| RRIRARPPRLPRPRPRPKLEPRP | 0.623 |
| RRIRLRPPRLPRPRPRPTCHPRP | 0.000681 |
| RRIRGRPPRLPRPRPRPYDLPRP | -0.511 |
| RRIRIRPPRLPRPRPRPSDDPRP | -0.191 |
| RRIRERPPRLPRPRPRPYVDPRP | -0.0122 |
| RRIRDRPPRLPRPRPRPVNEPRP | 0.0314 |
| RRIRCRPPRLPRPRPRPPGCPRP | 0.412 |
| RRIRVRPPRLPRPRPRPCWTPRP | -0.665 |
| RRIRWRPPRLPRPRPRPSIAPRP | 0.0837 |
| RRIRQRPPRLPRPRPRPVNQPRP | -0.0686 |

| Sequence | shrunken log2 fold change |
| --- | --- |
| RRIRFRPPRLPRPRPRPCVCPRP | 0.143 |
| RRIRNRPPRLPRPRPRPSVRPRP | -0.00578 |
| RRIRKRPPRLPRPRPRPGSSPRP | -0.0653 |
| RRIRMRPPRLPRPRPRPARDPRP | 1.65 |
| RRIRFRPPRLPRPRPRPKEAPRP | 0.084 |
| RRIRLRPPRLPRPRPRPFGYPRP | -0.291 |
| RRIRHRPPRLPRPRPRPDYDPRP | -0.278 |
| RRIRPRPPRLPRPRPRPPVTPRP | 0.147 |
| RRIRTRPPRLPRPRPRPHWMPRP | -0.243 |
| RRIRLRPPRLPRPRPRPCANPRP | -0.212 |
| RRIRVRPPRLPRPRPRPRQRPRP | 0.622 |
| RRIRGRPPRLPRPRPRPICMPRP | 0.454 |
| RRIRRRPPRLPRPRPRPCEEPRP | 0.218 |
| RRIRLRPPRLPRPRPRPIYTPRP | -0.377 |
| RRIRCRPPRLPRPRPRPQVKPRP | 0.0486 |
| RRIRYRPPRLPRPRPRPMNMPRP | -0.139 |
| RRIRGRPPRLPRPRPRPMTKPRP | 0.524 |
| RRIRMRPPRLPRPRPRPDWTPRP | 0.0113 |
| RRIRGRPPRLPRPRPRPSEIPRP | -0.193 |
| RRIRCRPPRLPRPRPRPMMQPRP | 0.0143 |
| RRIRGRPPRLPRPRPRPFPWPRP | 0.383 |
| RRIRQRPPRLPRPRPRPIHSPRP | -0.138 |

| Sequence | shrunken log2 fold change |
| --- | --- |
| RRIRGRPPRLPRPRPRPHGVPRP | 0.00437 |
| RRIRTRPPRLPRPRPRPAMGPRP | 0.391 |
| RRIRKRPPRLPRPRPRPISTPRP | -0.218 |
| RRIRLRPPRLPRPRPRPKNCPRP | -0.5 |
| RRIRKRPPRLPRPRPRPGRKPRP | 0.0872 |
| RRIRTRPPRLPRPRPRPHYKPRP | -0.531 |
| RRIRFRPPRLPRPRPRPKGVPRP | 0.0142 |
| RRIRMRPPRLPRPRPRPCHTPRP | 0.0555 |
| RRIRKRPPRLPRPRPRPNMHPRP | 0.19 |
| RRIRSRPPRLPRPRPRPVLEPRP | 0.0953 |
| RRIRLRPPRLPRPRPRPAFQPRP | 0.108 |
| RRIRFRPPRLPRPRPRPWSAPRP | -0.429 |
| RRIRNRPPRLPRPRPRPDHHPRP | 0.109 |
| RRIRPRPPRLPRPRPRPNACPRP | 0.195 |
| RRIRFRPPRLPRPRPRPVSDPRP | 0.00637 |
| RRIRTRPPRLPRPRPRPLDNPRP | -0.396 |
| RRIRWRPPRLPRPRPRPPKCPRP | 0.156 |
| RRIRFRPPRLPRPRPRPCQWPRP | 0.0155 |
| RRIRPRPPRLPRPRPRPSMNPRP | -0.522 |
| RRIRRRPPRLPRPRPRPSFHPRP | -0.182 |
| RRIRWRPPRLPRPRPRPTIKPRP | -0.125 |
| RRIRLRPPRLPRPRPRPNKFPRP | -0.206 |

| Sequence | shrunken log2 fold change |
| --- | --- |
| RRIRGRPPRLPRPRPRPDWFPRP | 0.448 |
| RRIRVRPPRLPRPRPRPHCQPRP | -0.401 |
| RRIRSRPPRLPRPRPRPMLMPRP | 0.00173 |
| RRIRSRPPRLPRPRPRPNFHPRP | -0.171 |
| RRIRHRPPRLPRPRPRPFCLPRP | -0.262 |
| RRIRARPPRLPRPRPRPDATPRP | 1.6 |
| RRIRDRPPRLPRPRPRPTPMPRP | 0.234 |
| RRIRSRPPRLPRPRPRPPWWPRP | 0.828 |
| RRIRDRPPRLPRPRPRPGTKPRP | -0.0282 |
| RRIRTRPPRLPRPRPRPPMAPRP | 0.176 |
| RRIRNRPPRLPRPRPRPSTIPRP | 0.0179 |
| RRIRQRPPRLPRPRPRPLEGPRP | -0.0228 |
| RRIRERPPRLPRPRPRPRCQPRP | -0.0986 |
| RRIRWRPPRLPRPRPRPHVVPRP | 0.0851 |
| RRIRLRPPRLPRPRPRPFSHPRP | -0.262 |
| RRIRWRPPRLPRPRPRPIMHPRP | -0.174 |
| RRIRPRPPRLPRPRPRPDRIPRP | -0.15 |
| RRIRSRPPRLPRPRPRPQMFPRP | -0.0871 |
| RRIRWRPPRLPRPRPRPENDPRP | -0.0396 |
| RRIRTRPPRLPRPRPRPWKCPRP | -0.0161 |
| RRIRVRPPRLPRPRPRPWHIPRP | -0.127 |
